Target: T1, rOmpR (OmpR-6xHis) (Klebsiella pneumoniae ATCC43816?) (UniProt A6TF28)
T1 sequence: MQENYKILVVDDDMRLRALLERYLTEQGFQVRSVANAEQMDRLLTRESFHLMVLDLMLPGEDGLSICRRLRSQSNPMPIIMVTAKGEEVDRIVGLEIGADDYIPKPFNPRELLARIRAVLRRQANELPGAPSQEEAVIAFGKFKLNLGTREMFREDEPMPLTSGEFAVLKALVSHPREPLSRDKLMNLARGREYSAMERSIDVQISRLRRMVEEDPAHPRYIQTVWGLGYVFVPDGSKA
Assay: EMSA

ACAGAACGCTGAAATGCACGGAAAGTTGTCCGTTGGAAAATAATTAAACATTTATTCACTATTTTGCTACTTATTGTTTGAAATCACGGGGCGTCACCGTATAATTTGTCCGCTTTTTGATGCTTGACTCTTCGTCTTAAAGGACGTTTTATACGACACGCGACATACCTCAAAGGGAGCAGG (double strand) [Patp2]
binding: no binding
